Measurements as given in US9371393B2, “Class I anti-CEA antibodies and uses thereof” (Immunomedics, Inc., priority 2009, dated 2016).

B1: MN-15: murine Class I anti-CEA MAb, IgG1 kappa, binds A1B1 domain of CEACAM5 and CEACAM6 (antibody, V domains shown)
VL: DIQLTQSPAIMSASPGEKVTMTCSASSRVSYIHWYQQKSGTSPKRWIYGTSTLASGVPARFSGSGSGTSYSLTISSMEAEDAATYYCQQWSYNPPTFGAGTKLELKR
VH: EVRLVESGGGLVQGPGSLRLSCAASGFALTDYYMSWVRQSPGKTLEWLGFIANKANGHTTDYSPSVKGRFTISRDNSQTILYLQMNTLRTEDSATYYCARDMGIRWNFDVWGQGTTVTVSS
B2: MN-15 Fab′: monovalent Fab′ fragment of murine MN-15 (antibody, V domains shown)
VL: B1 VL
VH: B1 VH

Tests used:
HT-29 cells = assay: Spontaneous migration (wound-healing) assay, HT-29; type: cell-based, human; parameters: dose or concentration left out as unconfirmed; conditions: antibody, 18 to 24 hours, untreated 14.9±9.1, n=10
Protocol: (§1) Spontaneous migration assay—Glass coverslips were placed in 100×15 mm Petri dishes and UV sterilized overnight. Suspensions of cancer cells (2-4×10^5 cells/mol) were prepared from 80% to 90% confluent monolayers. Cells were plated on each coverslip and incubated for 2 to 5 days to reach 70% to 80% confluence. Two diagonal cell-free paths (“wounds”) were created by dragging a sterile yellow pipette tip across the surface. Monolayers were rinsed several times to remove floating cells and 4 mol of fresh medium were added back in the absence or presence of antibody IgG or Fab′ (10 μg/mol) and incubated at 37° C. After 18 to 24 hours, the medium was removed and coverslips stained with 1 mol Wright-Giemsa for 1 minute. The stain was washed off with distilled water, air-dried, and mounted onto slides with Cytoseal 60. Repopulation of the wound space was evaluated by counting the number of cells that migrated into the wound area in 10 representative fields. Regions of migration were photographed for documentation.

LS174T cells = assay: Spontaneous migration (wound-healing) assay, LS174T; type: cell-based, human; parameters: dose or concentration left out as unconfirmed; conditions: antibody, 18 to 24 hours, untreated 38.8±10.9
Protocol: as §1

[1] = test system: MCF-7 adhesion to fibronectin; assay: Adhesion to extracellular matrix proteins assay, MCF-7; type: cell-based, human
Protocol: (§2) Adhesion to extracellular matrix proteins assay—The assay was done using the CYTOMATRIX™ screening kit from CHEMICON® (Kit #ECM205, Temecula, Calif.). The kit contains 96-well plates with strips coated with fibronectin, vitronectin, laminin, collagen-I, or collagen-IV. Subconfluent cell cultures were used for these studies. Cells (1×10^6 cells/mol) were seeded onto coated substrate and incubated at 37° C. for 1 hour in a CO2 incubator in PBS containing Ca^2+/Mg^2+ (200 μL per well). Adherent cells were fixed and stained. The plate was washed to remove unadhered cells and stained with 100 μL per well of MTS (Cell Titer Aq 96, PROMEGA®, Madison, Wis.) for 5 minutes at room temperature. Excess stain was removed with three PBS washes. Solubilization buffer [100 μL of a 50:50 mixture of 0.1 mol/L NaH2PO4 (pH 4.5) and 50% ethanol] was added to each well. Relative attachment was determined using absorbance readings (A540 nm-A570 nm).

[2] = test system: ZR75-30 binding to fibronectin; assay: Adhesion to extracellular matrix proteins assay, ZR75-30; type: cell-based, human
Protocol: as §2

MDA-231 cells = assay: Collagen-based invasion assay, MDA-231; type: cell-based, human; conditions: MDA-231, expresses neither antigen
Protocol: (§3) Collagen-based invasion assay—The assay was done using CHEMICON® Kit (#ECM551, MILLIPORE®, Billerica, Mass.). Tumor cells at 80% confluence and were serum-starved for 18 to 24 hours before the assay was used. Cells were harvested with 5 mol of 2 mmol/L EDTA/PBS per 100-mm dish and incubated at 37° C. for 5 to 15 minutes. Cells were collected into 10 to 20 mol of quenching medium (serum-free DMEM containing 5% BSA) to inactivate trypsin/EDTA from the harvesting buffer. Cells were pelleted, resuspended in quenching medium (1×10^6 cells/mol), and appropriate antibody Fabs were added to individual cell aliquots. Cell invasion potential was determined as follows. Baseline invasion and invasion in the presence of a chemoattractant (10% FBS) were measured after a 72-hour incubation period at 37° C. in a 5% CO2 incubator. The bottom side of the collagen-coated polycarbonate membrane insert of the invasion chamber was placed in 400 μL of cell stain for 20 minutes at room temperature and washed. The dye was extracted and transferred into a 96-well microtiter plate for colorimetric measurements (A560 nm).

[3] = test system: MCA38 (CEACAM5−/CEACAM6−) adhesion to HUVEC; assay: Endothelial cell adhesion assay, MCA38; type: cell-based, murine; conditions: 10 μg/mol Fab′
Protocol: Percentage adhesion of various tumor cells with varying amounts of expressed CEACAM5 and CEACAM6 to HUVEC cells in the absence or presence of MN-15 Fab′, MN-3 Fab′, or Ag8 Fab′ control. Cells were labeled with 1 μCi/mL of ^3H-thymidine and added to HUVEC cultures and incubated for 30 minutes at 37° C. Samples were washed thrice with PBS to remove unattached cells. Attached tumor cells were solubilized with 0.1 N NaOH and radioactivity was measured in a B-scintillation counter. The cpm attached/total cpm added (attaching potential) was determined. Results of a typical study are presented. Cell lines used include BT-20 (CEACAM5+/CEACAM6+), MCF-7 (CEACAM5−/CEACAM6+), HT-29 (CEACAM5−/CEACAM6+), Moser (CEACAM5+/CEACAM6−), MCA38cea (CEACAM5+/CEACAM6−), and MCA38 (CEACAM5−/CEACAM6−).
Endothelial cell adhesion assay—Human umbilical vein endothelial cells (HUVEC; Cambrex, San Diego, Calif.) were grown in collagen-coated dishes in EGM Media in a humidified atmosphere with 5% CO2 at 37° C. At passages 2 to 5, cells were plated at a density of 4×10^4 cells per well in 96-well plates 24 hours before the assay. Interleukin-1β (IL-1β, 1 ng/mol) was added 4 hours before the assay. […] Attached cells were solubilized with 0.1 N NaOH and radioactivity was measured in a β scintillation counter. The cpm attached/total cpm added (attaching potential) was determined.

[4] = test system: tumor cell adhesion to ECM proteins (fibronectin, vitronectin, laminin, collagen-I, collagen-IV); assay: Adhesion to extracellular matrix proteins assay, panel of six cell lines; type: cell-based, human
Protocol: as §2

BXPC3 cells = assay: Collagen-based invasion assay, BXPC3; type: cell-based, human; conditions: 10% FBS chemoattractant, 72-hour incubation
Protocol: as §3

effect on binding to fibronectin [2]	Molecule	number of migrating cells per field (HT-29 cells) [cells]	migrating cells per field (LS174T cells) [cells]	decrease of adhesion to fibronectin [1] [%]	effect on invasion (MDA-231 cells)	effect on tumor cell-endothelial cell adhesion [3]	effect on adhesion to fibronectin [4]	reduction in cell invasion (BXPC3 cells) [%]
not affecting the binding	B1	5.5±1.8	20.3±0.1	29	not reduced			
	B2	5.4±0.8	21.6±1.2		not reduced	neither MN-3 Fab′ targeting the N domain nor MN-15 Fab′ targeting the A1B1 domain of CEACAM6 had an effect	induced a decrease in adhesion of three of six cell lines	44
